Experimental data published in article PMC9723649.

Tests used:
purified protein [1] = substrate: N[C@@H](CO)C(=O)O; assay: purified protein
purified protein [2] = substrate: Nc1ncnc2c1ncn2[C@@H]1O[C@H](COP(=O)(O)OP(=O)(O)OP(=O)(O)O)[C@@H](O)[C@H]1O; assay: purified protein

B1: SARS2 (human mitochondrial seryl-tRNA synthetase, mature form) (Homo sapiens) (protein)
chain: TTEKRNRNLLYEYAREGYSALPQLDIERFCACPEEAAHALELRKGELRSADLPAIISTWQELRQLQEQIRSLEEEKAAVTEAVRALLANQDSGEVQQDPKYQGLRARGREIRKELVHLYPREAQLEEQFYLQALKLPNQTHPDVPVGDESQARVLHMVGDKPVFSFQPRGHLEIGEKLDIIRQKRLSHVSGHRSYYLRGAGALLQHGLVNFTFNKLLRRGFTPMTVPDLLRGAVFEGCGMTPNANPSQIYNIDPARFKDLNLAGTAEVGLAGYFMDHTVAFRDLPVRMVCSSTCYRAETNTGQEPRGLYRVHHFTKVEMFGVTGPGLEQSSQLLEEFLSLQMEILTELGLHFRVLDMPTQELGLPAYRKFDIEAWMPGRGRFGEVTSASNCTDFQSRRLHIMFQTEAGELQFAHTVNATACAVPRLLIALLESNQQKDGSVLVPPALQSYLGTDRITAPTHVPLQYIGPNQPRKPGLPGQPAVS
Q: Which results are given for B1?
A: Km (purified protein [1]): 2400 ± 40 µM; Km (purified protein [2]): 112.83 ± 10.54 µM
